Measurements as given in paper PMC10724393, “FOXA2 Suppression by TRIM36 Exerts Anti‐Tumor Role in Colorectal Cancer Via Inducing NRF2/GPX4‐Regulated Ferroptosis” (Advanced Science, 2023).

T1: His-tagged TRIM36 (human, UniProt Q9NQ86 1-728)
T1 construct: TRIM36, human; construct and limits of the His-tagged protein are not described; also called His-TRIM36; source: purified
T1 sequence (looked up): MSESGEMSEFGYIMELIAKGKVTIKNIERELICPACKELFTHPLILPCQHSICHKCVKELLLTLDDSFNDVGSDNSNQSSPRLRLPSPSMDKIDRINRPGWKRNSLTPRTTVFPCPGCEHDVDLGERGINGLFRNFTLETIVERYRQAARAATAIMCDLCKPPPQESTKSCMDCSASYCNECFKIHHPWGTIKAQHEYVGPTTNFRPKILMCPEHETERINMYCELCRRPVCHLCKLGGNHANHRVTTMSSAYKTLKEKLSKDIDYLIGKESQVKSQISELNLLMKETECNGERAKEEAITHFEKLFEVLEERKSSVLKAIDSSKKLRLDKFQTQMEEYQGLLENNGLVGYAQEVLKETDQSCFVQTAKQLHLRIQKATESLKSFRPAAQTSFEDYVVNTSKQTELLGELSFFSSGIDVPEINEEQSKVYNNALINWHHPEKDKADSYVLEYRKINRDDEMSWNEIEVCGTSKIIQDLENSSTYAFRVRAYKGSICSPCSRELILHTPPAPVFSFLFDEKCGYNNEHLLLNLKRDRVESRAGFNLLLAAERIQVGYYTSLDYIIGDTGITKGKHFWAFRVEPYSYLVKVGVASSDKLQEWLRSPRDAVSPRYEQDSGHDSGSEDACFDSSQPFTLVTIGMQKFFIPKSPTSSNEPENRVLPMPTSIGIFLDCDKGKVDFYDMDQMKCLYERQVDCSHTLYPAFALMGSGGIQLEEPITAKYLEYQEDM

T2: GST-TRIM36 (human, UniProt Q9NQ86 1-728)
T2 construct: TRIM36, human cDNA, full length, cloned into pGEX-4T-1-GST; also called purified GST-TRIM36
T2 sequence (looked up): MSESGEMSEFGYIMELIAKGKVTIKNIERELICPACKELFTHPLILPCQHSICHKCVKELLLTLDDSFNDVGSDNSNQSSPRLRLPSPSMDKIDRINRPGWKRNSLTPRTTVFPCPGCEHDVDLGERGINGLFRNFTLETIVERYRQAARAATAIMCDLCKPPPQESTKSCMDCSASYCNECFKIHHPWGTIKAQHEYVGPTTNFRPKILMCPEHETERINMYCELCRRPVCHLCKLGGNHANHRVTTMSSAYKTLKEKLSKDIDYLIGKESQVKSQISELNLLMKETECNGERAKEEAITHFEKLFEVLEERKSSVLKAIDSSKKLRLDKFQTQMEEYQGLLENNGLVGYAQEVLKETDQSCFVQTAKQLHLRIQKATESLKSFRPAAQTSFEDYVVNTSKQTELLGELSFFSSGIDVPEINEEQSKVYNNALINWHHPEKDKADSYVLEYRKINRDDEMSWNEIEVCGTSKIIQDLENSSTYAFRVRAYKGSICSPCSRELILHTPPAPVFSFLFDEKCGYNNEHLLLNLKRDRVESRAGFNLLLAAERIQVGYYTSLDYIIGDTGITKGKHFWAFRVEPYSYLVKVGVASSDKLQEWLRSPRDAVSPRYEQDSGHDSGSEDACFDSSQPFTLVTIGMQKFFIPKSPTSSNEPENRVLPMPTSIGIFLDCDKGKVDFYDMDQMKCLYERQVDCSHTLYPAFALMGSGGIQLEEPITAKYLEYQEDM


How the values were obtained:
His-tagged TRIM36 = target: T1, His-tagged TRIM36; experiment: pull-down; GST fusion on glutathione-Sepharose 4B beads, incubated with purified His-tagged partner for 4 h; eluate blotted with anti-His; GST alone as control; settings: both partners purified
GST-TRIM36 = target: T2, GST-TRIM36; experiment: as above; settings: both partners purified

binding result (His-tagged TRIM36)	binding result (GST-TRIM36)	Binder
binds	–	GST-FOXA2 (natural protein, human, UniProt Q9Y261 1-457, looked up, FOXA2, human cDNA, full length, cloned into pGEX-4T-1-GST; also called purified GST-FOXA2) MLGAVKMEGHEPSDWSSYYAEPEGYSSVSNMNAGLGMNGMNTYMSMSAAAMGSGSGNMSAGSMNMSSYVGAGMSPSLAGMSPGAGAMAGMGGSAGAAGVAGMGPHLSPSLSPLGGQAAGAMGGLAPYANMNSMSPMYGQAGLSRARDPKTYRRSYTHAKPPYSYISLITMAIQQSPNKMLTLSEIYQWIMDLFPFYRQNQQRWQNSIRHSLSFNDCFLKVPRSPDKPGKGSFWTLHPDSGNMFENGCYLRRQKRFKCEKQLALKEAAGAAGSGKKAAAGAQASQAQLGEAAGPASETPAGTESPHSSASPCQEHKRGGLGELKGTPAAALSPPEPAPSPGQQQQAAAHLLGPPHHPGLPPEAHLKPEHHYAFNHPFSINNLMSSEQQHHHSHHHHQPHKMDLKAYEQVMHYPGYGSPMPGSLAMGPVTNKTGLDASPLAADTSYYQGVYSRPIMNSS
–	binds	His-tagged FOXA2 (natural protein, human, UniProt Q9Y261 1-457, looked up, FOXA2, human; construct and limits of the His-tagged protein are not described; also called His-FOXA2; source: purified) MLGAVKMEGHEPSDWSSYYAEPEGYSSVSNMNAGLGMNGMNTYMSMSAAAMGSGSGNMSAGSMNMSSYVGAGMSPSLAGMSPGAGAMAGMGGSAGAAGVAGMGPHLSPSLSPLGGQAAGAMGGLAPYANMNSMSPMYGQAGLSRARDPKTYRRSYTHAKPPYSYISLITMAIQQSPNKMLTLSEIYQWIMDLFPFYRQNQQRWQNSIRHSLSFNDCFLKVPRSPDKPGKGSFWTLHPDSGNMFENGCYLRRQKRFKCEKQLALKEAAGAAGSGKKAAAGAQASQAQLGEAAGPASETPAGTESPHSSASPCQEHKRGGLGELKGTPAAALSPPEPAPSPGQQQQAAAHLLGPPHHPGLPPEAHLKPEHHYAFNHPFSINNLMSSEQQHHHSHHHHQPHKMDLKAYEQVMHYPGYGSPMPGSLAMGPVTNKTGLDASPLAADTSYYQGVYSRPIMNSS
